# Results as given in US20200048644A1.
# B1: recombinant Agkisacutacin (heterodimer snake venom protein, A chain and B chain, expressed in Pichia pastoris GS115) (protein)
# chain 1: DVDCLPGWSAYDQSCYRVFKLLKTWDDAEKFCTERPKGGHLVSIESAGERDFVAQLVSENKQTDNVWLGLKIQSKGQQCSTEWTDGSSVSYENFSEYQSKKCFVEKNTGFRTWLNLNCGSEYAFVCKSPP
# chain 2: GFCCPLRWSSYEGHCYLVVKEKKTWDDAEKFCTEQRKGGHLVSVHSREEADFLVHLAYPILDLSLIWMGLSNMWNDCKREWSDGTKLDFKAWAKTSDCLIGKTDDNQWLNMDCSKKHYFVCKFKL
# Molecular target: recombinant GPIb
# Experiment: GPIb binding activity test of the purified product (format not described; FIG. 9)
binder,measurement,value
B1,Kd,100 nM
